Data reported in patent publication US11707511B2, “Vaccine compositions and methods of using the same” (The Board of Supervisors of Louisiana State University and …, priority 2017, dated 2023).

Tested on: C. auris AR-0386
Assay: Passive transfer of mAbs or two mAbs in combination in A/J mouse model of invasive C. auris infection
Assay type: in vivo, Candida auris
Procedure: A. Complement protein C5-defecient A/J mice were treated with one of the five mAb or with DPBS as a vehicle control. The following day, mice were challenged with 1×10^8 C. auris cells/100 ul DPBS dose per mouse. […] B. Fungal burdens in the kidneys (top), heard (center), and brain (bottom).
Identified protective mAbs were obtained by use of standard hybridoma technique and purified by use of protein A/G. A/J mice were given an i.p. dose of either single mAb or two mAbs in combination 24 hours before hematogensous challenge with a lethal dose (2×108) of C. auris AR-0386 live cells. Mice received either 9G2F5 alone or 6H1G8 alone or 9F2G5 and 3H7E3 in combination had 40% survival rate respectively, with prolonged survival as compared to control animals that received DPBS buffer control.
Evaluation and validation of a panel of peptide-specific monoclonal antibodies (mAbs) as a passive immunization strategy protect against invasive C. auris infection in established A/J mouse model of human disease.
The monoclonal antibodies used in this experiment were: • 6H1G8 (IgG2b), α-Hwp1 (Hyphal wall protein) • 3E2G2 (IgG2b), α-Fba (Fructose bisphosphate aldolase) • 10E7E2 (IgG1), α-GPV-P3 (General peptide vaccine 3 from Phosphoglycerate kinase) • 9F2G5 (IgG2a), α-Pgk1 (Phosphoglycerate kinase) • 3H7E3 (IgG1), α-Met6 (Methyltetrahydropteroyltriglutamate)

B1: 10E7E2: IgG1 mAb of hybridoma 10E7E2, specific for GPV-P3; VH SEQ ID NO: 72, VL SEQ ID NO: 74 (antibody, V domains shown)
VH: QVQLKQSGPGLVQPSQSLSITCTVSGFSLTSYGVHWVRQSPGKGLEWLGVIWSGGTTDYNAAFISRLSISKDNSKSQVFFKMNSLQANDTAIYYCARGGHRGFAYWGQGTLVTVSA
VL: DIVMTQSHKFMSTSVGDRVSITCKASQDVGTAVAWYQQKPGQSPKLLIYWASTRHTGVPDRFTGSGSGTDFTLTISNVQSEDLADYFCQQYSSYPLTFGAGTKLELK
For B1, the “fungal burdens in targeted organs” value (A/J mouse model, in words) was “lower fungal loads”, the “protection against C. auris invasive infection” value (A/J mouse model, in words) was “protect against C. auris invasive infection” and the survival (FIG. 15A, A/J mice, 1×10^8 C. auris cells, experiment terminated 40 days post challenge) was 25%. The “Protection against C. auris” value (Table 19, A/J strain mice) was 80-100% and the “Protection against C. auris (grade word)” value (Table 19, A/J strain mice) was “High”.
